Laboratory results as given in US20220389400.

Molecular target: amyloid β (UniProt P05067)
UniProt P05067, sequence (P05067 whole entry, looked up): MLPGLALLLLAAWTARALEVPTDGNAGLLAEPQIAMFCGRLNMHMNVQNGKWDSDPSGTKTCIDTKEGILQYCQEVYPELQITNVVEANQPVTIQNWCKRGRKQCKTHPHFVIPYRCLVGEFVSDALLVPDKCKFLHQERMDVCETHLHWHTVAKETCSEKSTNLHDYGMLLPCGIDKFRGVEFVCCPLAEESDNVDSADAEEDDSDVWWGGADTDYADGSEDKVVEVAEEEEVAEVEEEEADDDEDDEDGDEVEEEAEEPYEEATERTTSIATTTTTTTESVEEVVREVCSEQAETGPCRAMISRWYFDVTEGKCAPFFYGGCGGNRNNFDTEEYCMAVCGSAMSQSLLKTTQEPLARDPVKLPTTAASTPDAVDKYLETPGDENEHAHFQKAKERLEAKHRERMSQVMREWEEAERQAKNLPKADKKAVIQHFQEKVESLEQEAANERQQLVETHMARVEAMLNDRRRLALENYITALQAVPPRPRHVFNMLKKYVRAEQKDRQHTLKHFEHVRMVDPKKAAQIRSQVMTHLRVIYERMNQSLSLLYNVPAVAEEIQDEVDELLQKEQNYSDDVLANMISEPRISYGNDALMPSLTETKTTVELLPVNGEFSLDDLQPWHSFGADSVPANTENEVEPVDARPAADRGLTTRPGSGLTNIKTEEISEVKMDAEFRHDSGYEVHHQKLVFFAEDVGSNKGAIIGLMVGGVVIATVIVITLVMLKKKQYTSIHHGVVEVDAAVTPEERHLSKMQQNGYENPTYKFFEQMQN

Row | Substance | activity to degrade amyloid β (Western blot) | protease activity; amount of amyloid β by Western blot (4G8)
1 | NIaΔ20 (20 amino acids removed from the C-terminus) | showed activity similar to normal NIa | –
2 | NIaΔ24 (24 amino acids removed from the C-terminus) | showed activity similar to normal NIa | –
3 | NIaΔ28 (28 amino acids removed from the C-terminus) | showed significantly reduced activity | –
4 | TuMV-derived NIa protease | – | amyloid β disappeared after treatment with NIa and its fragment for 1 hour
